This data set deals with Escherichia coli TOP10. The data set can be described thus: shrunken log2 fold change of peptide-encoding DNA abundance (4.5 h post-induction vs induction); higher = less antimicrobial activity (less host growth inhibition). The note with it: time post-induction: 4.5 h; library: site-saturation at positions 5, 18, 19, 20.

Experimental findings from the supplement of paper PMC9112550, “Optimization of the antimicrobial peptide Bac7 by deep mutational scanning” (BMC Biology, 2022) are described below.
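Further: peptides expressed intracellularly from a pBAD plasmid library in pooled LB shake-flask culture, induced with 0.3% L-arabinose, DNA abundance read by NGS, three biological replicates, DESeq2 with apeglm shrinkage.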

Regarding RRIRARPPRLPRPRPRPHQTPRP, the “shrunken log2 fold change” value was -0.103. As for RRIRTRPPRLPRPRPRPMNDPRP, the “shrunken log2 fold change” value was -0.0997.

On to RRIRGRPPRLPRPRPRPRIFPRP, for which the “shrunken log2 fold change” value turned out to be 0.804. As to RRIRARPPRLPRPRPRPRDKPRP, the “shrunken log2 fold change” value is 0.442.

In the case of RRIRPRPPRLPRPRPRPDHIPRP, the “shrunken log2 fold change” value is -0.0312. The result for RRIRDRPPRLPRPRPRPPMKPRP reads 0.131; that for RRIRCRPPRLPRPRPRPYTQPRP, -1.31; that for RRIRGRPPRLPRPRPRPKRYPRP, 0.253. As for RRIRIRPPRLPRPRPRPTYAPRP, the “shrunken log2 fold change” value is -0.612. Regarding RRIRGRPPRLPRPRPRPEGNPRP, the “shrunken log2 fold change” value stood at 0.0816.

Turning to RRIRHRPPRLPRPRPRPWCLPRP, the “shrunken log2 fold change” value was -1.67. As for RRIRFRPPRLPRPRPRPKHGPRP, the figure is 0.405. Consider RRIRPRPPRLPRPRPRPKLLPRP, for which the “shrunken log2 fold change” value was -0.0549. In the case of RRIRPRPPRLPRPRPRPNPMPRP, the “shrunken log2 fold change” value was -0.211. Turning to RRIRPRPPRLPRPRPRPSGSPRP, the “shrunken log2 fold change” value turned out to be 0.0191. Turning to RRIRGRPPRLPRPRPRPSHDPRP, the “shrunken log2 fold change” value is 0.136. Regarding RRIRSRPPRLPRPRPRPPRYPRP, the “shrunken log2 fold change” value was -0.0232. In the case of RRIRTRPPRLPRPRPRPPCMPRP, the “shrunken log2 fold change” value came to 0.0978. RRIRQRPPRLPRPRPRPFNIPRP: the “shrunken log2 fold change” value amounted to 0.0348. Consider RRIRERPPRLPRPRPRPYTDPRP, for which the “shrunken log2 fold change” value is -0.956. Consider RRIRNRPPRLPRPRPRPDFFPRP, for which the “shrunken log2 fold change” value was -0.138. The result for RRIRRRPPRLPRPRPRPCLMPRP reads 0.434. The result for RRIRRRPPRLPRPRPRPLAGPRP reads 0.477; that for RRIRIRPPRLPRPRPRPPFKPRP, 0.228. Consider RRIRRRPPRLPRPRPRPMFSPRP, for which the “shrunken log2 fold change” value was -0.0418.

Turning to RRIRVRPPRLPRPRPRPCNEPRP, the “shrunken log2 fold change” value is -0.0213. For RRIRYRPPRLPRPRPRPDMFPRP, the “shrunken log2 fold change” value was -0.0113. For RRIRERPPRLPRPRPRPAQGPRP, the “shrunken log2 fold change” value worked out at 0.473.

For RRIRMRPPRLPRPRPRPFRLPRP, the “shrunken log2 fold change” value was -0.1. The result for RRIRLRPPRLPRPRPRPEGFPRP reads 0.604. On to RRIRMRPPRLPRPRPRPYGMPRP, for which the “shrunken log2 fold change” value came to 0.162. As for RRIRQRPPRLPRPRPRPLMWPRP, the “shrunken log2 fold change” value was determined as 0.0648. The result for RRIRHRPPRLPRPRPRPTHPPRP reads 0.155. With RRIRHRPPRLPRPRPRPRYPPRP, the “shrunken log2 fold change” value came out at 0.0331.

For the sequence RRIRIRPPRLPRPRPRPEATPRP, the “shrunken log2 fold change” value was found to be 0.511. Take RRIRIRPPRLPRPRPRPCMLPRP: the “shrunken log2 fold change” value was -0.61. As for RRIRERPPRLPRPRPRPKSHPRP, the figure is -0.336; as for RRIRMRPPRLPRPRPRPKEQPRP, 1.26; as for RRIRRRPPRLPRPRPRPPRDPRP, 1.48. Consider RRIRERPPRLPRPRPRPVSFPRP, for which the “shrunken log2 fold change” value was -0.0647. For RRIRGRPPRLPRPRPRPQVYPRP, the “shrunken log2 fold change” value came to 0.23. Turning to RRIRERPPRLPRPRPRPNWSPRP, the “shrunken log2 fold change” value was -0.3. Regarding RRIRGRPPRLPRPRPRPAEAPRP, the “shrunken log2 fold change” value is 1.08. The result for RRIRSRPPRLPRPRPRPAEQPRP reads 0.0415; that for RRIRHRPPRLPRPRPRPIPQPRP, -0.126; that for RRIRMRPPRLPRPRPRPSVQPRP, 0.296. As for RRIRFRPPRLPRPRPRPRRRPRP, the figure is 0.658; as for RRIRRRPPRLPRPRPRPFENPRP, 0.0967; as for RRIRPRPPRLPRPRPRPLWIPRP, -0.128. On to RRIRKRPPRLPRPRPRPTSKPRP, for which the “shrunken log2 fold change” value worked out at 0.443. As for RRIRMRPPRLPRPRPRPCHVPRP, the “shrunken log2 fold change” value is -0.0132. Take RRIRYRPPRLPRPRPRPAAGPRP: the “shrunken log2 fold change” value was -0.197.

RRIRIRPPRLPRPRPRPLYDPRP: the “shrunken log2 fold change” value is -1.02. As to RRIRLRPPRLPRPRPRPPRFPRP, the “shrunken log2 fold change” value was 0.209. In the case of RRIRDRPPRLPRPRPRPAFYPRP, the “shrunken log2 fold change” value is -0.305.

In the case of RRIRWRPPRLPRPRPRPYFVPRP, the “shrunken log2 fold change” value is -0.309. In the case of RRIRPRPPRLPRPRPRPSNSPRP, the “shrunken log2 fold change” value is -0.794.

As for RRIRGRPPRLPRPRPRPPKLPRP, the “shrunken log2 fold change” value was 0.524. Consider RRIRWRPPRLPRPRPRPHKTPRP, for which the “shrunken log2 fold change” value turned out to be 0.175. For RRIRTRPPRLPRPRPRPQDIPRP, the “shrunken log2 fold change” value is -0.0501. As for RRIRHRPPRLPRPRPRPGMEPRP, the “shrunken log2 fold change” value is -0.0685. Regarding RRIRSRPPRLPRPRPRPLHIPRP, the “shrunken log2 fold change” value was -0.0437.

On to RRIRFRPPRLPRPRPRPGRDPRP, for which the “shrunken log2 fold change” value turned out to be 0.0984. As to RRIRIRPPRLPRPRPRPVVEPRP, the “shrunken log2 fold change” value was -0.0638. The result for RRIRSRPPRLPRPRPRPFHTPRP reads -0.232; that for RRIRNRPPRLPRPRPRPYQSPRP, -0.00256. Consider RRIRIRPPRLPRPRPRPEKFPRP, for which the “shrunken log2 fold change” value is -0.247.

Take RRIRNRPPRLPRPRPRPPFTPRP: the “shrunken log2 fold change” value was 0.0907.

Turning to RRIRSRPPRLPRPRPRPWRKPRP, the “shrunken log2 fold change” value came out at 0.0156. As for RRIRYRPPRLPRPRPRPSIQPRP, the “shrunken log2 fold change” value is -0.594. As for RRIRQRPPRLPRPRPRPIKKPRP, the figure is -0.1; as for RRIRQRPPRLPRPRPRPGSPPRP, -0.232; as for RRIRARPPRLPRPRPRPRWEPRP, 0.431. In the case of RRIRIRPPRLPRPRPRPELWPRP, the “shrunken log2 fold change” value stood at 0.243. As to RRIRYRPPRLPRPRPRPNWGPRP, the “shrunken log2 fold change” value is -0.0851. Regarding RRIRMRPPRLPRPRPRPHFFPRP, the “shrunken log2 fold change” value is -0.134.

Regarding RRIRQRPPRLPRPRPRPMCSPRP, the “shrunken log2 fold change” value was -0.000965. With RRIRARPPRLPRPRPRPPMLPRP, the “shrunken log2 fold change” value came to 0.805.

Consider RRIRDRPPRLPRPRPRPARTPRP, for which the “shrunken log2 fold change” value is 0.364. For RRIRQRPPRLPRPRPRPMFDPRP, the “shrunken log2 fold change” value is -0.109. For RRIRIRPPRLPRPRPRPTCKPRP, the “shrunken log2 fold change” value is -0.466.

With RRIRRRPPRLPRPRPRPMRFPRP, the “shrunken log2 fold change” value came out at 1.1. For the sequence RRIRVRPPRLPRPRPRPPDEPRP, the “shrunken log2 fold change” value is 0.621. The result for RRIRSRPPRLPRPRPRPYHHPRP reads -0.511; that for RRIRYRPPRLPRPRPRPMWFPRP, 0.0169; that for RRIRQRPPRLPRPRPRPPAFPRP, 0.379. As for RRIRWRPPRLPRPRPRPENSPRP, the figure is 0.0193; as for RRIRPRPPRLPRPRPRPIDEPRP, -0.0401.

On to RRIRMRPPRLPRPRPRPGVIPRP, for which the “shrunken log2 fold change” value worked out at 3.26. Take RRIRDRPPRLPRPRPRPEIGPRP: the “shrunken log2 fold change” value came to 0.765. For the sequence RRIRMRPPRLPRPRPRPAMFPRP, the “shrunken log2 fold change” value amounted to 0.388. In the case of RRIRQRPPRLPRPRPRPSRRPRP, the “shrunken log2 fold change” value was 0.0103. As for RRIRVRPPRLPRPRPRPSIYPRP, the figure is -0.482; as for RRIRRRPPRLPRPRPRPEYAPRP, 0.0407; as for RRIRERPPRLPRPRPRPKTYPRP, -0.771.

On to RRIRARPPRLPRPRPRPSVKPRP, for which the “shrunken log2 fold change” value was 0.133. As to RRIRGRPPRLPRPRPRPANPPRP, the “shrunken log2 fold change” value stood at 0.476. As for RRIRHRPPRLPRPRPRPATIPRP, the figure is -0.281. For the sequence RRIRNRPPRLPRPRPRPRQIPRP, the “shrunken log2 fold change” value worked out at 0.151. For RRIRIRPPRLPRPRPRPFATPRP, the “shrunken log2 fold change” value was -0.0964.

As for RRIRERPPRLPRPRPRPYLPPRP, the “shrunken log2 fold change” value is -0.392.

Take RRIRERPPRLPRPRPRPETHPRP: the “shrunken log2 fold change” value is 0.178. The result for RRIRERPPRLPRPRPRPWLSPRP reads 0.0694; that for RRIRDRPPRLPRPRPRPSQQPRP, -0.123; that for RRIRPRPPRLPRPRPRPWRTPRP, 0.141. The result for RRIRKRPPRLPRPRPRPQPVPRP reads 0.095. For RRIRLRPPRLPRPRPRPYDTPRP, the “shrunken log2 fold change” value was -0.925. For RRIRCRPPRLPRPRPRPGIWPRP, the “shrunken log2 fold change” value stood at 0.485. As for RRIRPRPPRLPRPRPRPTSSPRP, the “shrunken log2 fold change” value was found to be 0.0475. Take RRIRYRPPRLPRPRPRPAIEPRP: the “shrunken log2 fold change” value was 0.0193. Turning to RRIRFRPPRLPRPRPRPWAVPRP, the “shrunken log2 fold change” value is -0.0667. For RRIRRRPPRLPRPRPRPWDKPRP, the “shrunken log2 fold change” value was determined as 0.0425.

Regarding RRIRRRPPRLPRPRPRPPVMPRP, the “shrunken log2 fold change” value was determined as 0.403. RRIRFRPPRLPRPRPRPKMAPRP: the “shrunken log2 fold change” value was -0.0582. Turning to RRIRARPPRLPRPRPRPFHAPRP, the “shrunken log2 fold change” value was -0.0904. RRIRSRPPRLPRPRPRPPGKPRP: the “shrunken log2 fold change” value is -0.0498. For RRIRHRPPRLPRPRPRPTLCPRP, the “shrunken log2 fold change” value was -0.134.

For RRIRIRPPRLPRPRPRPRTCPRP, the “shrunken log2 fold change” value was -0.282.

As for RRIRGRPPRLPRPRPRPKKDPRP, the “shrunken log2 fold change” value came out at 0.708. In the case of RRIRERPPRLPRPRPRPGYRPRP, the “shrunken log2 fold change” value was -0.408. With RRIRTRPPRLPRPRPRPNFEPRP, the “shrunken log2 fold change” value was -0.101. On to RRIRKRPPRLPRPRPRPGDIPRP, for which the “shrunken log2 fold change” value was -0.227. As for RRIRPRPPRLPRPRPRPKHFPRP, the figure is 0.328; as for RRIRIRPPRLPRPRPRPVQRPRP, -0.039. Take RRIRLRPPRLPRPRPRPLGVPRP: the “shrunken log2 fold change” value was 0.0325.
